Measurements published in article PMC8319299, “PALI1 facilitates DNA and nucleosome binding by PRC2 and triggers an allosteric activation of catalysis”.

T1: PALI1 PIR (Homo sapiens, UniProt Q96JN0-3 1058-1250)
T1 sequence: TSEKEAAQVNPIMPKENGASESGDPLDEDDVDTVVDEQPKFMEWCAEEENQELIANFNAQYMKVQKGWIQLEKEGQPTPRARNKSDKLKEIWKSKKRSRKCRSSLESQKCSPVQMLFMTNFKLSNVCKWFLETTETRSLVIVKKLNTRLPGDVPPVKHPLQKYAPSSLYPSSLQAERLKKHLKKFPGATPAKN


Key:
PRC2-PALI1 PIR = PRC2-PALI1 PIR (Homo sapiens, UniProt Q15910-2;O75530;Q15022;Q09028;Q96JN0-3 1-751;1-441;1-739;1-425;1058-1250); assay: fluorescence anisotropy; 50 mM Tris-HCl pH 7.5 (25 C), 100 mM KCl, 2 mM 2-mercaptoethanol, 0.1 mg/mL BSA, 0.05% NP-40; FA at 30 C; nucleosome EMSA with 5% glycerol at 4 C (+5 ng/uL salmon sperm DNA for H2A-Cy5 probes); PALI1 PIR EMSA with 5% glycerol, binding at 30 C; probe 5 nM; conditions: protein: recombinant, tags: His6-MBP (PreScission-cleavable), copies: 1;1;1;1;1, label: 3'-fluorescein; for Kd: hairpin, 46 bp stem
PALI1 PIR = molecular target: T1, PALI1 PIR; assay: EMSA; 50 mM Tris-HCl pH 7.5 (25 C), 100 mM KCl, 2 mM 2-mercaptoethanol, 0.1 mg/mL BSA, 0.05% NP-40; FA at 30 C; nucleosome EMSA with 5% glycerol at 4 C (+5 ng/uL salmon sperm DNA for H2A-Cy5 probes); PALI1 PIR EMSA with 5% glycerol, binding at 30 C; probe 5 nM; conditions: protein: recombinant; tags: MBP removed by TEV; label: 3'-fluorescein; hairpin, 46 bp stem
[1] = molecular target: PRC2 core (EZH2-EED-SUZ12-RBBP4) (Homo sapiens, UniProt Q15910-2;O75530;Q15022;Q09028 1-751;1-441;1-739;1-425); assay: fluorescence anisotropy; 50 mM Tris-HCl pH 7.5 (25 C), 100 mM KCl, 2 mM 2-mercaptoethanol, 0.1 mg/mL BSA, 0.05% NP-40; FA at 30 C; nucleosome EMSA with 5% glycerol at 4 C (+5 ng/uL salmon sperm DNA for H2A-Cy5 probes); PALI1 PIR EMSA with 5% glycerol, binding at 30 C; probe 5 nM; conditions: protein: recombinant; tags: His6-MBP (PreScission-cleavable); copies: 1;1;1;1; label: 3'-fluorescein; G4
Sequence of PRC2 core (EZH2-EED-SUZ12-RBBP4) (Q15910 other isoform, or with tags, fused parts or gaps, chain 1 of 4): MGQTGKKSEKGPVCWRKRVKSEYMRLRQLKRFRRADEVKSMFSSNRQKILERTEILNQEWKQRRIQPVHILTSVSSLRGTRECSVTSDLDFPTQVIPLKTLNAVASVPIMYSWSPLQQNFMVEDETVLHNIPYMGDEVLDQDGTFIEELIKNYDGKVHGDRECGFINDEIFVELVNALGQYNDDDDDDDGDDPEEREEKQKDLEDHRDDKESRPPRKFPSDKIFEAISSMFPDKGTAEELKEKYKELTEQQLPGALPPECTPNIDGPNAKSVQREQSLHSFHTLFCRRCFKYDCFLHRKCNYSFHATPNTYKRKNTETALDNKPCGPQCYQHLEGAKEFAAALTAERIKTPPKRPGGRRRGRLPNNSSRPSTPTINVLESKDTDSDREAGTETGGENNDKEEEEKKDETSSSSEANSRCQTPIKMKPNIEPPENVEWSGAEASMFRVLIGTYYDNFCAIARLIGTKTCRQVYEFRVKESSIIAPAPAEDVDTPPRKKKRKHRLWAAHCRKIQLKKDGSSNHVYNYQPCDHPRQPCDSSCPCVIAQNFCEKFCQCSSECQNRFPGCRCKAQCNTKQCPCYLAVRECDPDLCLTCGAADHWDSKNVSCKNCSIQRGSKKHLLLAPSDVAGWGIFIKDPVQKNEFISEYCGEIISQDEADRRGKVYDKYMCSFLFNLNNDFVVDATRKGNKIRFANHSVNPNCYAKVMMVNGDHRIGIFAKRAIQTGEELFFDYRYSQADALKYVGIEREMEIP
Sequence of PRC2 core (EZH2-EED-SUZ12-RBBP4) (O75530 whole entry, chain 2 of 4): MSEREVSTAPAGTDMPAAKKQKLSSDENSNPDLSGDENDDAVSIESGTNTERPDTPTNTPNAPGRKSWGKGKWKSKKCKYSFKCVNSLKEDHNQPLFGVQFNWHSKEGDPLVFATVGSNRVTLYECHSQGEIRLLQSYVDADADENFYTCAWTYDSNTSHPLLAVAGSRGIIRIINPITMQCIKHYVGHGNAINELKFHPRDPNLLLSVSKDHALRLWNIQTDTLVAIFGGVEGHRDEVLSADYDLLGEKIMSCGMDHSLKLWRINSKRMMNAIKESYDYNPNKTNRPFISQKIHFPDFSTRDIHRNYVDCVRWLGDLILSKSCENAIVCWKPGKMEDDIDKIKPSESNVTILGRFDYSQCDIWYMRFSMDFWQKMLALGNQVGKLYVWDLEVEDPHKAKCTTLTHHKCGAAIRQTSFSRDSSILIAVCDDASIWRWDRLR
Sequence of PRC2 core (EZH2-EED-SUZ12-RBBP4) (Q15022 whole entry, chain 3 of 4): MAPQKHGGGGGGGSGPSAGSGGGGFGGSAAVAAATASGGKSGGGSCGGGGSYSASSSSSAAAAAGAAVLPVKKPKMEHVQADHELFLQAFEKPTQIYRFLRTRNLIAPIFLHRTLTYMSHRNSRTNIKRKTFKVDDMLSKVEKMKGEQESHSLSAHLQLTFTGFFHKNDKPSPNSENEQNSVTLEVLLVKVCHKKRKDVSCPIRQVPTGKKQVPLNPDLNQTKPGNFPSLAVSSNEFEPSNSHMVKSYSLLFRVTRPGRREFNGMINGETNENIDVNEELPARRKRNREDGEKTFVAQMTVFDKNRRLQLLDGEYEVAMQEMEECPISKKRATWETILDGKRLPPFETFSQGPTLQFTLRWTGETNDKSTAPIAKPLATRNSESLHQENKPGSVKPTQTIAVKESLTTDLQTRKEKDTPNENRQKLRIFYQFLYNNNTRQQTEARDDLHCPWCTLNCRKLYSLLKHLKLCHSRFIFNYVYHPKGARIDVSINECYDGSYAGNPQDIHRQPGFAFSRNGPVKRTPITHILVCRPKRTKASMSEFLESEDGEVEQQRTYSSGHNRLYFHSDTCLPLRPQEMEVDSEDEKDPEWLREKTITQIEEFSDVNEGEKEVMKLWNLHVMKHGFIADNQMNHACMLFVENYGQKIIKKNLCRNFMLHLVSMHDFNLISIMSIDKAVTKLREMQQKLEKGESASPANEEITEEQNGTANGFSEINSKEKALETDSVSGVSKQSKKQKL
Sequence of PRC2 core (EZH2-EED-SUZ12-RBBP4) (Q09028 whole entry, chain 4 of 4): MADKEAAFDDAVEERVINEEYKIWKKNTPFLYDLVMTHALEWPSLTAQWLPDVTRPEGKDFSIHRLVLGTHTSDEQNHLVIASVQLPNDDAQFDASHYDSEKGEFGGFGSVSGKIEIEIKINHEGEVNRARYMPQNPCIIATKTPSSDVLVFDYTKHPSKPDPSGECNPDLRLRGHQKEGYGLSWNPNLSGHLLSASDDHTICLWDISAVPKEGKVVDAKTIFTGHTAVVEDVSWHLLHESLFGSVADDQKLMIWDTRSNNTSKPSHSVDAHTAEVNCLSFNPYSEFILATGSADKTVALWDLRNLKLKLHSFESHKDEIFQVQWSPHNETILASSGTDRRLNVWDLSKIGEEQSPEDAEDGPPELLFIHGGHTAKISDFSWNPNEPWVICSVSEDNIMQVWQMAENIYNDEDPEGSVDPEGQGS

Sequence of PRC2-PALI1 PIR (Q15910 other isoform, or with tags, fused parts or gaps, chain 1 of 4): as the sequence (Q15910 other isoform, or with tags, fused parts or gaps, chain 1 of 4) above
Sequence of PRC2-PALI1 PIR (O75530 whole entry, chain 2 of 4): as the sequence (O75530 whole entry, chain 2 of 4) above
Sequence of PRC2-PALI1 PIR (Q15022 whole entry, chain 3 of 4): as the sequence (Q15022 whole entry, chain 3 of 4) above
Sequence of PRC2-PALI1 PIR (Q09028 whole entry, chain 4 of 4): as the sequence (Q09028 whole entry, chain 4 of 4) above

Binder | Kd (PRC2-PALI1 PIR) [nM] | Kd (PALI1 PIR) [nM] | binding result (PRC2-PALI1 PIR; G4) | binding result [1]
CpG46 mt (structured_DNA) DNA: AATATTTCATTTTATTCTATCTCAATGAGACAAAAGATTGATTAATGCTAATTAATCAATCTTTTGTCTCATTGAGATAGAATAAAATGAAATATT | 73.7 ± 10 |  |  | 
CpG46 (structured_DNA) DNA: GGCGCCCTGCCCCGCCTCGCTCTGGCAGAGTGGGGAGCCAGCCGGCGCTAGCCGGCTGGCTCCCCACTCTGCCAGAGCGAGGCGGGGCAGGGCGCC | 155 ± 26 | 2300 ± 300 |  | 
UUAGGGUUAGGGUUAGGGUUAGGG (structured_RNA) [G4 24 RNA] |  |  | binds | binds
